Data as given in patent publication US20080194701A1, “Bifunctional Enzyme with Y-Glutamylcysteine Synthetase and Glutathione Synthetase Activity and Uses Thereof” (priority 2004, published 2008).

Key:
[1] = biological target: S. agalactiae γ-glutamylcysteine synthetase-glutathione synthetase (γ-GCS-GS) with an N-terminal His8-tag (Streptococcus agalactiae) (UniProt Q8DXM9); test: cell-based or functional assay
[2] = test system: N[C@@H](CCC(=O)N[C@@H](CS)C(=O)O)C(=O)O; test: purified protein, by the assay type; settings: other: substrate Km, GS activity
N[C@@H](CS)C(=O)O = test: purified protein, by the assay type; settings: other: substrate Km, γ-GCS activity
E. faecalis γ-GCS-GS [3] = biological target: T1, E. faecalis γ-GCS-GS (Enterococcus faecalis, UniProt Q82ZG8); test: γ-GCS activity of E. faecalis γ-GCS-GS
E. faecalis γ-GCS-GS [4] = biological target: T1, E. faecalis γ-GCS-GS; test: GS activity of E. faecalis γ-GCS-GS; settings: purified enzyme
[5] = substrate: CC[C@H](N)C(=O)OC(=O)CC[C@H](N)C(=O)O; test: cells, lysate or membranes named; settings: other: substrate Km, GS activity; pH 7.4
[6] = substrate: N[C@@H](CCC(=O)N[C@@H](CS)C(=O)O)C(=O)O; test: cells, lysate or membranes named; settings: other: substrate Km, GS activity; pH 7.4
[7] = substrate: NCC(=O)O; test: cells, lysate or membranes named; settings: other: substrate Km, GS activity; pH 7.4
[8] = substrate: N[C@@H](CS)C(=O)O; test: γ-GCS activity assay based on ADP formation, S. agalactiae γ-GCS-GS; format: biochemical, Streptococcus agalactiae; settings: other: substrate Km, pH 8.2, 37.0 °C
Procedure: In Table 1, a unit was defined as the amount of enzyme activity required to catalyze the formation of 1 μmol of product per hour. Specific activity was shown as units per mg protein. Activity was determined at 37° C. based on ADP formation in reaction mixtures containing L-glutamate and L-cysteine and using pyruvate kinase and lactate dehydrogenase to couple ADP formation to NADH oxidation, which was monitored at 340 nm.
At set time points ranging from one to 30 minutes, 5 μl aliquots were removed and assayed for residual enzyme activity using the standard γ-GCS assay based on ADP formation.

For “Glutathione (L-γ-glutamyl-L-cysteinylglycine) (peptide)”, the inhibition of γ-GCS activity [1] was < 5%.

For “E. faecalis γ-GCS-GS (Enterococcus faecalis V583)”, the Km [2] was 4.30 ± 0.05 mM and the Km (N[C@@H](CS)C(=O)O) was 192 ± 14 µM.

B1: E. faecalis γ-GCS-GS: bifunctional γ-GCS-GS enzyme of E. faecalis (gshAB, EF3089; SEQ ID NO:12) expressed in E. coli (protein, listed as Enterococcus faecalis)
chain: MNYRELMQKKNVRPYVLMARFGLEKENQRSTREGLLATTEHPTVFGNRSYHPYIQTDFSETQLELITPVANSGTEMLRFLDAIHDVARRSIPEDEMLWPLSMPPQLPTKDEEIKIAKLDQYDAVLYRRYLAKEYGKRKQMVSGIHFNFEYDQALIQQLYDEQSEVTDCKQFKTKVYMKVARNFLRYRWLITYLFGASPVSEDRYFRVYDDQPQEPVRSIRNSTYGYRNHDNVKVSYASLERYLEDIHRMVENGLLSEEKEFYAPVRLRGGKQMSDLPKTGIRYIELRNLDLNPFSRLGIVEDTVDFLHYFMLYLLWTDEKEEADEWVKTGDIFNEQVALGHPHETIKLIAEGDRIFSEMIDMLDALGIRKGKEVVGKYYQQLRNPQDTVSGKMWTIIQENSNSELGNIFGNQYQSMAFERPYQLAGFREMELSTQIFLFDAIQKGLEIEILDEQEQFLKLQHGEHIEYVKNANMTSKDNYVVPLIMENKTVTKKILSAAGFHVPGGEEFSSFIEAQEAHLRYANKAFVVKPKSTNYGLGITIFKEGASLEDFTEALRIAFKEDTAVLIEEFLPGTEYRFFVLDNDVKAIMLRVPANVTGDGKHTVEELVAAKNSDPLRGTNHRAPLELIQLNDLEKLMLKEQGLTIYSVPEKEQIVYLRENSNVSTGGDSIDMTDVIDDSYKQIAIEAVAALGAKICGIDLIIPDKDVKGTRDSLTYGIIEANFNPAMHMHVYPYAGQGRRLTMDVLKLLYPEVVQ
B1 was tested, and the “ratio of activities (γ-GCS to GS)” value (E. faecalis γ-GCS-GS [3]) was “about 0.23”, the γ-GCS specific activity (E. faecalis γ-GCS-GS [3]; purified enzyme) was 240 units/mg and the GS specific activity (E. faecalis γ-GCS-GS [4]) was 2297 units/mg.

B2: S. agalactiae γ-GCS-GS (Streptococcus agalactiae 2603V/R) (protein)
chain: MIIDRLLQRSHSHLPILQATFGLERESLRIHQPTQRVAQTPHPKTLGSRNYHPYIQTDYSEPQLELITPIAKDSQEAIRFLKAISDVAGRSINHDEYLWPLSMPPKVREEDIQIAQLEDAFEYDYRKYLEKTYGKLIQSISGIHYNLGLGQELLTSLFELSQADNAIDFQNQLYMKLSQNFLRYRWLLTYLYGASPVAEEDFLDQKLNNPVRSLRNSHLGYVNHKDIRISYTSLKDYVNDLENAVKSGQLIAEKEFYSPVRLRGSKACRNYLEKGITYLEFRTFDLNPFSPIGITQETVDTVHLFLLALLWIDSSSHIDQDIKEANRLNDLIALSHPLEKLPNQAPVSDLVDAMQSVIQHFNLSPYYQDLLESVKRQIQSPELTVAGQLLEMIEGLSLETFGQRQGQIYHDYAWEAPYALKGYETMELSTQLLLFDVIQKGVNFEVLDEQDQFLKLWHNSHIEYVKNGNMTSKDNYIVPLAMANKVVTKKILDEKHFPTPFGDEFTDRKEALNYFSQIQDKPIVVKPKSTNFGLGISIFKTSANLASYEKAIDIAFTEDSAILVEEYIEGTEYRFFVLEGDCIAVLLRVAANVVGDGIHTISQLVKLKNQNPLRGYDHRSPLEVIELGEVEQLMLEQQGYTVNSIPPEGTKIELRRNSNISTGGDSIDVTNTMDPTYKQLAAEMAEAMGAWVCGVDLIIPNATQAYSKDKKNATCIELNFNPLMYMHTYCQEGPGQSITPRILAKLFPEL
notes: corresponded to full-length S. agalactiae γ-GCS-GS with an N-terminal His8-tag; made in house; host or cells: E. coli SG13009 with pQE30-gshAB plus pREP4 or pRARE
In the case of B2, the Km [5] is reported as 11.5 ± 1.5 mM mM, the Vmax [5] is reported as 2648 ± 597 units/mg units/mg and the Km [6] is reported as 3.9 ± 0.5 mM mM. It also gave a Vmax [6] of 2264 ± 896 units/mg units/mg, a Km [7] of 6 ± 0.5 mM mM and a Vmax [7] of 2326 ± 584 units/mg. The Km [8] was 160 ± 9 μM μM and the Vmax [8] was 1126 ± 21 units/mg.
